Data taken from patent US9738911B2, “Methods of producing 7-carbon chemicals via pyruvate and succinate semialdehyde aldol condensation” (INVISTA North America S.a r.l., priority 2012, dated 2017).

Columns and labels:
Assay type in all cases: biochemical
[1] = Carboxylate reductase activity assay, N7-acetyl-7-aminoheptanoate to N7-acetyl-7-aminoheptanal; settings: 2 mM N7-acetyl-7-aminoheptanoate, 1 mM ATP, 1 mM NADPH, enhanced by sfp gene product, room temperature, 20 min; against empty vector control (FIG. 12)
Procedure: The activity of each of the N-terminal His-tagged carboxylate reductases of SEQ ID NOs: 3, 6, and 7 (see Examples 4, and FIGS. 7B, 7E, and 7F) for converting N7-acetyl-7-aminoheptanoate to N7-acetyl-7-aminoheptanal was assayed in triplicate in a buffer composed of a final concentration of 50 mM HEPES buffer (pH=7.5), 2 mM N7-acetyl-7-aminoheptanoate, 10 mM MgCl2, 1 mM ATP, and 1 mM NADPH. The assays were initiated by adding purified carboxylate reductase and phosphopantetheine transferase or the empty vector control to the assay buffer containing the N7-acetyl-7-aminoheptanoate then incubated at room temperature for 20 min. The consumption of NADPH was monitored by absorbance at 340 nm.

[2] = ω-transaminase activity assay, forward direction, pimelate semialdehyde to 7-aminoheptanoate
Procedure: (§1) A sequence encoding an N-terminal His-tag was added to the genes from Chromobacterium violaceum, Pseudomonas syringae, Rhodobacter sphaeroides, and Vibrio Fluvialis encoding the ω-transaminases of SEQ ID NOs: 8, 10, 11 and 13, respectively (see FIGS. 7F-7G) such that N-terminal HIS tagged ω-transaminases could be produced. Each of the resulting modified genes was cloned into a pET21a expression vector under control of the T7 promoter and each expression vector was transformed into a BL21[DE3] E. coli host. The resulting recombinant E. coli strains were cultivated at 37° C. in a 250 mL shake flask culture containing 50 mL LB media and antibiotic selection pressure, with shaking at 230 rpm. Each culture was induced overnight at 16° C. using 1 mM IPTG.
(§2) The pellet from each induced shake flask culture was harvested via centrifugation. Each pellet was resuspended and lysed via sonication. The cell debris was separated from the supernatant via centrifugation and the cell free extract was used immediately in enzyme activity assays.
Enzyme activity in the forward direction (i.e., pimelate semialdehyde to 7-aminoheptanoate) was confirmed for the transaminases of SEQ ID NO 10, SEQ ID NO 11 and SEQ ID NO 13. Enzyme activity assays were performed in a buffer composed of a final concentration of 50 mM HEPES buffer (pH=7.5), 10 mM pimelate semialdehyde, 10 mM L-alanine and 100 μM pyridoxyl 5′ phosphate. Each enzyme activity assay reaction was initiated by adding a cell free extract of the ω-transaminase gene product or the empty vector control to the assay buffer containing the pimelate semialdehyde and incubated at 25° C. for 4 h, with shaking at 250 rpm. The formation of pyruvate was quantified via RP-HPLC.

[3] = ω-transaminase activity assay, 7-aminoheptanol to 7-oxoheptanol
Procedure: A nucleotide sequence encoding an N-terminal His-tag was added to the Chromobacterium violaceum, Pseudomonas syringae and Rhodobacter sphaeroides genes encoding the ω-transaminases of SEQ ID NOs: 8, 10 and 11, respectively (see FIGS. 7F and 7G) such that N-terminal HIS tagged ω-transaminases could be produced. The modified genes were cloned into a pET21a expression vector under the T7 promoter.
Each expression vector was transformed into a BL21[DE3] E. coli host. Each resulting recombinant E. coli strain were cultivated at 37° C. in a 250 mL shake flask culture containing 50 mL LB media and antibiotic selection pressure, with shaking at 230 rpm. Each culture was induced overnight at 16° C. using 1 mM IPTG.
as §2
(§3) Enzyme activity assays in the reverse direction (i.e., 7-aminoheptanol to 7-oxoheptanol) were performed in a buffer composed of a final concentration of 50 mM HEPES buffer (pH=7.5), 10 mM 7-aminoheptanol, 10 mM pyruvate, and 100 μM pyridoxyl 5′ phosphate. Each enzyme activity assay reaction was initiated by adding cell free extract of the ω-transaminase gene product or the empty vector control to the assay buffer containing the 7-aminoheptanol and then incubated at 25° C. for 4 h, with shaking at 250 rpm. The formation of L-alanine was quantified via RP-HPLC.

[4] = ω-transaminase activity assay, reverse direction, 7-aminoheptanoate to pimelate semialdehyde; settings: 10 mM 7-aminoheptanoate, 10 mM pyruvate, cell free extract, 25° C., 4 h; against empty vector control (FIG. 15)
Procedure: as §1, §2
as §3, with “7-aminoheptanoate” for “7-aminoheptanol”, “pimelate semialdehyde)” for “7-oxoheptanol)”, “7-aminoheptanoate,” for “7-aminoheptanol,”, “pyruvate” for “pyruvate,”, “and” for “and then”, “L-alanine from pyruvate” for “L-alanine”

Molecule	substrate acceptance, consumption of NADPH by absorbance at 340 nm [1]	substrate acceptance, formation of pyruvate from L-alanine by RP-HPLC ([2]; 10 mM pimelate semialdehyde, 10 mM L-alanine, cell free extract, 25° C., 4 h, against empty vector control (FIG. 16))	reversibility of ω-transaminase activity: pimelate semialdehyde accepted, 7-aminoheptanoate synthesized ([2]; conclusion from the forward and reverse assays of Example 2)	substrate acceptance, formation of L-alanine by RP-HPLC ([3]; 10 mM 7-aminoheptanol, 10 mM pyruvate, cell free extract, 25° C., 4 h, against empty vector control (FIG. 19))	acceptance of 7-oxoheptanol, forming 7-aminoheptanol, concluded from reversibility ([3]; concluded from the reverse direction assay and Example 2)	substrate acceptance, formation of L-alanine from pyruvate by RP-HPLC [4]
SEQ ID NO 3: Mycobacterium smegmatis carboxylate reductase (Genbank Accession No. ABK71854.1) (protein, listed as Mycobacterium smegmatis) MTSDVHDATDGVTETALDDEQSTRRIAELYATDPEFAAAAPLPAVVDAAHKPGLRLAEILQTLFTGYGDRPALGYRARELATDEGGRTVTRLLPRFDTLTYAQVWSRVQAVAAALRHNFAQPIYPGDAVATIGFASPDYLTLDLVCAYLGLVSVPLQHNAPVSRLAPILAEVEPRILTVSAEYLDLAVESVRDVNSVSQLVVFDHHPEVDDHRDALARAREQLAGKGIAVTTLDAIADEGAGLPAEPIYTADHDQRLAMILYTSGSTGAPKGAMYTEAMVARLWTMSFITGDPTPVINVNFMPLNHLGGRIPISTAVQNGGTSYFVPESDMSTLFEDLALVRPTELGLVPRVADMLYQHHLATVDRLVTQGADELTAEKQAGAELREQVLGGRVITGFVSTAPLAAEMRAFLDITLGAHIVDGYGLTETGAVTRDGVIVRPPVIDYKLIDVPELGYFSTDKPYPRGELLVRSQTLTPGYYKRPEVTASVFDRDGYYHTGDVMAETAPDHLVYVDRRNNVLKLAQGEFVAVANLEAVFSGAALVRQIFVYGNSERSFLLAVVVPTPEALEQYDPAALKAALADSLQRTARDAELQSYEVPADFIVETEPFSAANGLLSGVGKLLRPNLKDRYGQRLEQMYADIAATQANQLRELRRAAATQPVIDTLTQAAATILGTGSEVASDAHFTDLGGDSLSALTLSNLLSDFFGFEVPVGTIVNPATNLAQLAQHIEAQRTAGDRRPSFTTVHGADATEIRASELTLDKFIDAETLRAAPGLPKVTTEPRTVLLSGANGWLGRFLTLQWLERLAPVGGTLITIVRGRDDAAARARLTQAYDTDPELSRRFAELADRHLRVVAGDIGDPNLGLTPEIWHRLAAEVDLVVHPAALVNHVLPYRQLFGPNVVGTAEVIKLALTERIKPVTYLSTVSVAMGIPDFEEDGDIRTVSPVRPLDGGYANGYGNSKWAGEVLLREAHDLCGLPVATFRSDMILAHPRYRGQVNVPDMFTRLLLSLLITGVAPRSFYIGDGERPRAHYPGLTVDFVAEAVTTLGAQQREGYVSYDVMNPHDDGISLDVFVDWLIRAGHPIDRVDDYDDWVRRFETALTALPEKRRAQTVLPLLHAFRAPQAPLRGAPEPTEVFHAAVRTAKVGPGDIPHLDEALIDKYIRDLREFGLI	accepted N7-acetyl-7-aminoheptanoate as substrate	–	–	–	–	–
SEQ ID NO 6: Mycobacterium massiliense carboxylate reductase (Genbank Accession No. EIV 11143.1) (protein, Mycobacterium massiliense) MTNETNPQQEQLSRRIESLRESDPQFRAAQPDPAVAEQVLRPGLHLSEAIAALMTGYAERPALGERARELVIDQDGRTTLRLLPRFDTTTYGELWSRTTSVAAAWHHDATHPVKAGDLVATLGFTSIDYTVLDLAIMILGGVAVPLQTSAPASQWTTILAEAEPNTLAVSIELIGAAMESVRATPSIKQVVVFDYTPEVDDQREAFEAASTQLAGTGIALETLDAVIARGAALPAAPLYAPSAGDDPLALLIYTSGSTGAPKGAMHSENIVRRWWIREDVMAGTENLPMIGLNFMPMSHIMGRGTLTSTLSTGGTGYFAASSDMSTLFEDMELIRPTALALVPRVCDMVFQRFQTEVDRRLASGDTASAEAVAAEVKADIRDNLFGGRVSAVMVGSAPLSEELGEFIESCFELNLTDGYGSTEAGMVFRDGIVQRPPVIDYKLVDVPELGYFSTDKPHPRGELLLKTDGMFLGYYKRPEVTASVFDADGFYMTGDIVAELAHDNIEIIDRRNNVLKLSQGEFVAVATLEAEYANSPVVHQIYVYGSSERSYLLAVVVPTPEAVAAAKGDAAALKTTIADSLQDIAKEIQLQSYEVPRDFIIEPQPFTQGNGLLTGIAKLARPNLKAHYGPRLEQMYAEIAEQQAAELRALHGVDPDKPALETVLKAAQALLGVSSAELAADAHFTDLGGDSLSALSFSDLLRDIFAVEVPVGVIVSAANDLGGVAKFVDEQRHSGGTRPTAETVHGAGHTEIRAADLTLDKFIDEATLHAAPSLPKAAGIPHTVLLTGSNGYLGHYLALEWLERLDKTDGKLIVIVRGKNAEAAYGRLEEAFDTGDTELLAHFRSLADKHLEVLAGDIGDPNLGLDADTWQRLADTVDVIVHPAALVNHVLPYNQLFGPNVVGTAEIIKLAITTKIKPVTYLSTVAVAAYVDPTTFDEESDIRLISAVRPIDDGYANGYGNAKWAGEVLLREAHDLCGLPVAVFRSDMILAHSRYTGQLNVPDQFTRLILSLIATGIAPGSFYQAQTTGERPLAHYDGLPGDFTAEAITTLGTQVPEGSEGFVTYDCVNPHADGISLDNFVDWLIEAGYPIARIDNYTEWFTRFDTAIRGLSEKQKQHSLLPLLHAFEQPSAAENHGVVPAKRFQHAVQAAGIGPVGQDGTTDIPHLSRRLIVKYAKDLEQLGLL	accepted N7-acetyl-7-aminoheptanoate as substrate	–	–	–	–	–
SEQ ID NO 10: Pseudomonas syringae ω-transaminase (Genbank Accession No. AAY39893.1) (protein, listed as Pseudomonas syringae) MSANNPQTLEWQALSSEHHLAPFSDYKQLKEKGPRIITRAEGVYLWDSEGNKILDGMSGLWCVAIGYGREELADAASKQMRELPYYNLFFQTAHPPVLELAKAISDIAPEGMNHVFFTGSGSEGNDTMLRMVRHYWALKGQPNKKTIISRVNGYHGSTVAGASLGGMTYMHEQGDLPIPGVVHIPQPYWFGEGGDMTPDEFGIWAAEQLEKKILELGVENVGAFIAEPIQGAGGVIVPPDSYWPKIKEILSRYDILFAADEVICGFGRTSEWFGSDFYGLRPDMMTIAKGLTSGYVPMGGLIVRDEIVAVLNEGGDFNHGFTYSGHPVAAAVALENIRILREEKIVERVRSETAPYLQKRLRELSDHPLVGEVRGVGLLGAIELVKDKTTRERYTDKGAGMICRTFCFDNGLIMRAVGDTMIIAPPLVISFAQIDELVEKARTCLDLTLAVLQG	–	accepted pimelate semialdehyde as substrate	accepted pimelate semialdehyde as substrate and synthesized 7-aminoheptanoate as a reaction product	accepted 7-aminoheptanol as substrate	accept 7-oxoheptanol as substrate and form 7-aminoheptanol	accepted 7-aminoheptanote as substrate
